Laboratory results reported in publication PMC6922461 (PLoS Biology, 2019).

Experiments:
[1] = target: Strep-Tactin-SpyCatcherΔ subunit; test: refolding of mixed subunits, anion exchange chromatography, SDS-PAGE densitometry; subunits from washed inclusion bodies mixed at 3:1, refolded by rapid dilution, tetramers separated on Mono Q; boiled peak samples on reducing SDS-PAGE, bands normalised for molecular weight and converted to a subunit ratio; settings: both partners purified
[2] = target: the molecule itself; test: as above

Strep-Tactin-SpyCatcherΔ subunit, sequence (chain, as listed by the source mutant): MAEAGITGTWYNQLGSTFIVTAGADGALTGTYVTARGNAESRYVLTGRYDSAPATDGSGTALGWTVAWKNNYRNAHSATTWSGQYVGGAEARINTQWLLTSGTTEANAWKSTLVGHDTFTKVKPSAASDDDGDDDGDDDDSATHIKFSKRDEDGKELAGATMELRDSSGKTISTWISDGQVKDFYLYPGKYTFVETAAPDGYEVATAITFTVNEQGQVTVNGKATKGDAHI

B1: dead streptavidin subunit (other)
chain: MAEAGITGTWYAQLGDTFIVTAGADGALTGTYEAAVGNAESRYVLTGRYDSAPATDGSGTALGWTVAWKNNYRNAHSATTWSGQYVGGAEARINTQWLLTSGTTEANAWKSTLVGHDTFTKVKPSAAS
notes: also called dead streptavidin monomer
[1]
  stoichiometry N: 3.7 dead streptavidin per Strep-Tactin-SpyCatcherΔ
[2]
  binding result: binds
